The values that follow come from publication doi:10.1101/2020.12.22.423932 (bioRxiv, 2020).

For this assay, the target named is mono-ubiquitin (UniProt P0CG48 1-76). As to the kind of experiment: MST.

As a reminder, the Kd is the concentration at which binding is half-saturated.

B1: human α5 subunit, wild type, recombinant (natural protein)
chain: MFLTRSEYDRGVNTFSPEGRLFQVEYAIEAIKLGSTAIGIQTSEGVCLAVEKRITSPLMEPSSIEKIVEIDAHIGCAMSGLIADAKTLIDKARVETQNHWFTYNETMTVESVTQAVSNLALQFGEEDADPGAMSRPFGVALLFGGVDEKGPQLFHMDPSGTFVQCDARAIGSASEGAQSSLQEVYHKSMTLKEAIKSSLIILKQVMEEKLNATNIELATVQPGQNFHMFTKEELEEVIKDI
modifications: labelled with RED-NHS 2nd Generation dye
Regarding B1, the Kd was found to be 57.7 µM.
